Source: US11091749B2, “Deimmunized lysostaphin and methods of use” (TRUSTEES OF DARTMOUTH COLLEGE, priority 2014, dated 2021)
Residue numbers refer to the chain shown, from its start. Numbers in names are those of the source.

What was measured:
S. aureus cells [1] = test: Lytic assay using purified protein (SYTOX kinetic assay); assay type: cell-based, Staphylococcus aureus; conditions: for % WT Lytic Rate: biological duplicates; for % Wild-Type Activity: 200 ng purified enzyme
Experimental: (§1) S. aureus cells were grown either to mid-log or to saturation in tryptic soy broth (TSB) at 37° C. with shaking. The cells were harvested by centrifugation and washed once in phosphate buffered saline (PBS: 2.7 mM KCl, 1.5 mM KH2PO4, 8.9 mM Na2HPO4, 136.9 mM NaCl, pH 7.4). The assay was performed in 96-well, black, clear bottom plates from Greiner Bio-One (Monroe, N.C.). The final (250 μl) reaction was composed of 10 μl of P. pastoris culture supernatant, S. aureus cells at OD600=1.5, and 5 μM SYTOX Green (Thermo Fisher Scientific; Waltham, Mass.), all in PBS. Data were collected using SPECTRAMAX GEMINI Fluorescence Microplate Reader (Molecular Devices; Sunnyvale, Calif.) using an excitation/emission of 504/523 nm, and rates were determined from the slope of the steepest linear portion of the trace. Each assay was performed with 500 ng of commercially-sourced lysostaphin (ssLys) as an internal control.
The activity of purified lysostaphin variants was examined using the SYTOX kinetic assay as previously described in Chapter 2, Section 3.2.6. 200 ng of purified enzyme (instead of culture supernatant) was used in each reaction.

MRSA strain 3425-3 = test: MIC assay; assay type: cell-based, Staphylococcus aureus; conditions: biological duplicates
Experimental: (§2) The MICs of wild-type lysostaphin and its variants were determined by adding 2-fold serial dilutions of enzymes into wells of a polypropylene 96-well plate (Costar 3879) containing ˜40,000 S. aureus SA113 (or S. aureus 6445, 3425-1, 3425-3) cells in Muller Hinton broth (BD) supplemented with 2% NaCl and 0.1% bovine serum albumin, yielding a total volume of 100 μl. Plates were grown overnight at 37° C. with shaking at 900 rpm on an Orbit P4 orbital shaker (Labnet; Edison, N.J.). […] The assay was performed in triplicate for each enzyme.

S. aureus 3425-1 = test: MIC assay; assay type: cell-based, Staphylococcus aureus; conditions: biological duplicates
Experimental: as §2

S. aureus SA113 [2] = test: MIC assay; assay type: cell-based, Staphylococcus aureus; conditions: for MIC Strain SA113: biological duplicates; for MIC: S. aureus SA113, purified enzyme
Experimental: as §2

S. aureus 6445 = test: MIC assay; assay type: cell-based, Staphylococcus aureus; conditions: biological duplicates
[3] = Thermostability by differential scanning fluorimetry; assay type: physicochemical
Experimental: The relative thermostability of the lysostaphin variants was determined by differential scanning fluorimetry, as previously described (Niesen, et al. (2007) Nat. Protocols 2:2212-2221). Proteins and SYPRO Orange were diluted in PBS (final concentrations of 100 μg/ml and 5× in 20 μl reaction volume, respectively), and fluorescence was quantified at 1-degree increments from 25 to 94° C. using an Applied Biosystems ABI 7500 fast real-time PCR system. The reactions were performed using PCR Plates for Fast Thermocyclers (VWR; Radnor, Pa.). Fluorescence was quantified using the preset TAMRA parameters. Melting temperatures were determined by data analysis with the ‘DSF Analysis v3.0.xlsx’ EXCEL sheet and GraphPad Prism v.6.02 software.

S. aureus cells [4] = test: Lytic assay of culture supernatant (SYTOX Green); assay type: cell-based, Staphylococcus aureus; conditions: single point mutants
Experimental: as §1
The amount of protein used in each assay was estimated from SDS-PAGE gels. Briefly, 10 μl of culture supernatant was run on a SDS-PAGE gel together with standards of 0.5 μg, 0.7 μg, and 1 μg of ssLys in separate lanes. The gel was stained using GELCODE Blue Stain Reagent from Thermo Fisher Scientific (Carlsbad, Calif.) and bands quantified using Quantity Tools from Image Lab 5.1 software (Bio-Rad Laboratories; Hercules, Calif.).

S. aureus SA113 [5] = test: MIC assay using P. pastoris culture supernatant (MIC50); assay type: cell-based, Staphylococcus aureus; conditions: aglycosylated mutants
Experimental: Lysostaphin MIC was determined essentially as described (Zhao, et al. (2014) supra). Briefly, 100 μl aliquots of P. pastoris culture supernatant were serially diluted in TSB. Each well was inoculated with 100 μl of ˜10^6 CFU/ml S. aureus SA113 in TSB. Microplates were incubated at 37° C. for 24 hours. […] MIC50 was quantified by measuring light scattering at 650 nm in a microplate reader.

pooled splenocytes = conditions: mouse, in vivo
Excerpt: HUMI mice were constructed by surgical transplantation of human bone marrow, liver, and thymus tissues into NOD/SCID/γc^−/− mice (Dartmouth Transgenics & Genetic Constructs Shared Resource) as described (Brainard, et al. (2009) J. Virol. 83:7305-21). All animals were humanized from the same human donor. Mice used experimentally had human lymphocytes as a minimum of 25% of their total peripheral blood leukocytes. Fourteen weeks post-engraftment, 12 female HUMI mice were divided into 3 groups of 4 each and immunized with a single 50 μl subcutaneous injection of 100 μg wild-type LST, 100 μg variant Flex 5, or 100 μg variant Flex 9 in complete Freund's adjuvant (CFA). Two weeks following the immunization, mice were sacrificed and splenocytes were harvested and pooled for each group. Pooled splenocytes (5×10^5/well) were plated in triplicate into 96-well plates with medium containing 5% fetal calf serum, 1-glutamine, antibiotics, and a final concentration of 10 μg/ml LST or variants (or 1% DMSO as a control). […]
In vivo immunogenicity was evaluated using NOD/SCID/γc^−/− mice that had been surgically humanized with human immune cells, liver tissue, and thymus tissue (HUMI mice). […] Cell proliferation was measured by tritiated thymidine uptake at 72 hours.

MRSA strain USA400 [6] = test: In vitro inhibitory activity (MIC); assay type: cell-based, Staphylococcus aureus
Excerpt: F11, P12 and F13 were screened for in vitro inhibitory activity against MRSA strain USA400 (FIG. 7).

MRSA strain USA400 [7] = test: Efficacy of F12 in recurrent systemic MRSA infections; assay type: in vivo, DR4 HLA transgenic mice; conditions: for # Treated Mice Surviving: 1×10^9 MRSA USA400 i.p., 500 μg enzyme 1 hour later
Experimental: In a similar set of experiments, the immunogenicity and efficacy of variant F12 was compared to wild-type LST in the absence of adjuvant using DR4 HLA transgenic mice. At week 0, mice were challenged with an intraperitoneal injection of 2×10^8 MRSA strain USA400, and 1 hour later the mice were treated with 500 μg wild-type LST or 500 μg variant F12, given as a single bolus subcutaneous injection. Subsequently, mice were challenged weekly with an intraperitoneal injection of 1×10^9 MRSA strain USA400, and treated as above. Antibody titers were measured weekly beginning at week 2. […] Variant F12 rescued all mice from four recurrent, systemic, MRSA infections (Table 24). The substantially lower antibody titers elicited by variant F12 indicate that this variant is […] than wild-type LST.

Molecule: Commercial: Commercial lysostaphin purchased from Sigma, E. coli-produced
- % WT Lytic Rate (S. aureus cells [1]): 60 ± 20%
- MIC Strain 3425-3 (MRSA strain 3425-3): 0.03 µg/mL
- MIC Strain 3425-1 (S. aureus 3425-1): 0.04 µg/mL
- MIC Strain SA113 (S. aureus SA113 [2]): 0.03 µg/mL
- MIC Strain 6445 (S. aureus 6445): 0.03 µg/mL
- Tm ([3]; biological duplicates): 47.3 °C

Molecule: Flex 14: lysostaphin variant I41E, S122D; two mutation design shared between rigid and flexible designs
- % Wild-Type Activity (S. aureus cells [1]): 69%
- MIC (S. aureus SA113 [2]): 0.0833 µg/mL
- Tm ([3]; SYPRO Orange, PBS): 58.6 °C

Molecule: Phe38Gly
- activity, % of the wild-type activity (S. aureus cells [4]): 69%

Molecule: Ser124Tyr
- activity, % of the wild-type activity (S. aureus cells [4]): 16%

Molecule: Ser126Pro: aglycosylated lysostaphin mutant Ser126Pro, backbone of the designs
- activity compared to the wild-type lysostaphin (S. aureus SA113 [5]): equivalent activity

Molecule: Thr127Ala
- activity compared to the wild-type lysostaphin (S. aureus SA113 [5]): equivalent activity

B1: Flex 9: lysostaphin variant N12G, I41E, L83M, K95E, I99Q, N121G, S122D, S124G (protein, UniProt P10547 248-493, looked up, variant N12G I41E L83M K95E I99Q N121G S122D S124G)
Lysostaphin: AATHEHSAQWLGNYKKGYGYGPYPLGINGGMHYGVDFFMNEGTPVKAISSGKIVEAGWSNYGGGNQIGLIENDGVHRQWYMHMSKYNVKVGDYVEAGQQIGWSGSTGYSTAPHLHFQRMVGDFGNSTAQDPMPFLKSAGYGKAGGTVTPTPNTGWKTNKYGTLYKSESASFTPNTDIITRTTGPFRSMPQSGVLKAGQTIHYDEVMKQDGHVWVGYTGNSGQRIYLPVRTWNKSTNTLGVLWGTIK
- % Wild-Type Activity (S. aureus cells [1]): 57%
- % WT Lytic Rate (S. aureus cells [1]): 60 ± 20%
- MIC Strain 3425-3 (MRSA strain 3425-3): 0.2 µg/mL
- MIC Strain 3425-1 (S. aureus 3425-1): 0.2 µg/mL
- MIC (S. aureus SA113 [2]): 0.1250 µg/mL
- concentration preventing outgrowth (S. aureus SA113 [2]; all four strains (SA113, 6445, 3425-1, 3425-3)): ≤ 200 ng/mL
- MIC Strain SA113 (S. aureus SA113 [2]): 0.04 µg/mL
- MIC Strain 6445 (S. aureus 6445): 0.13 µg/mL
- Tm ([3]; SYPRO Orange, PBS): 53.0 °C
- Tm ([3]; biological duplicates): 52.8 °C
- reduced proliferative response relative to wild-type group (pooled splenocytes): 65%

B2: F12: variant combining cell wall binding domain mutations with Flex 9 (or derivative) catalytic domain (Table 22) (protein)
chain: B1 Lysostaphin with E95K, S126P, Y160H, S166N, A169G, R186T, N232Q, N236D
- MIC activity relative to wild-type LST (MRSA strain USA400 [6]): 25%
- retained original MIC activity after heating (MRSA strain USA400 [6]; 50° C. for 1 hour prior to assay): 50%
- recurrent systemic MRSA infections from which mice were rescued (MRSA strain USA400 [7]; 500 μg s.c., weekly challenges, no adjuvant): four
- # Treated Mice Surviving (MRSA strain USA400 [7]; Week 1): 9
- # Treated Mice Surviving (MRSA strain USA400 [7]; Week 2): 8
- # Treated Mice Surviving (MRSA strain USA400 [7]; Week 3): 7
- # Treated Mice Surviving (MRSA strain USA400 [7]; Week 4): 6

B3: Flex 10: lysostaphin variant N12G, I41E, N121G, S122D (protein, UniProt P10547 248-493, looked up, variant N12G I41E N121G S122D)
Lysostaphin: B1 Lysostaphin with M83L, E95K, Q99I, G124S
- % Wild-Type Activity (S. aureus cells [1]): 62%
- MIC (S. aureus SA113 [2]): 0.0729 µg/mL
- Tm ([3]; SYPRO Orange, PBS): 57.5 °C

B4: Flex 8: lysostaphin variant N12G, I41E, L83M, I99Q, N121G, S122D (protein, UniProt P10547 248-493, looked up, variant N12G I41E L83M I99Q N121G S122D)
Lysostaphin: B1 Lysostaphin with E95K, G124S
- % Wild-Type Activity (S. aureus cells [1]): 60%
- MIC (S. aureus SA113 [2]): 0.2083 µg/mL
- Tm ([3]; SYPRO Orange, PBS): 52.9 °C

B5: Flex 1: lysostaphin variant I41E, I99Q, S122D (SEQ ID NO:32) (protein)
chain: B1 Lysostaphin with G12N, K46H, M83L, E95K, Q99I, R118T, G121N, S126P
- % Wild-Type Activity (S. aureus cells [1]): 63%
- MIC (S. aureus SA113 [2]): 0.0833 µg/mL
- Tm ([3]; SYPRO Orange, PBS): 55.4 °C

B6: Flex 6: lysostaphin variant N12G, I41E, I99Q, N121G, S122D (protein, UniProt P10547 248-493, looked up, variant N12G I41E I99Q N121G S122D)
Lysostaphin: B1 Lysostaphin with M83L, E95K, G124S
- % Wild-Type Activity (S. aureus cells [1]): 58%
- MIC (S. aureus SA113 [2]): 0.2083 µg/mL
- Tm ([3]; SYPRO Orange, PBS): 54.1 °C
